According to article PMC7102599 (Cell, 2020):
Values joined by “and” are separate entries in the source; they are usually repeats but may differ in a detail not shown here. Equal entries are not always repeated.

Target: human angiotensin-converting enzyme 2 ectodomain (ACE2, residues 1-614) (human, UniProt Q9BYF1 18-614)
Assay: BLI

Chain of human angiotensin-converting enzyme 2 ectodomain (ACE2, residues 1-614) (Q9BYF1 18-614): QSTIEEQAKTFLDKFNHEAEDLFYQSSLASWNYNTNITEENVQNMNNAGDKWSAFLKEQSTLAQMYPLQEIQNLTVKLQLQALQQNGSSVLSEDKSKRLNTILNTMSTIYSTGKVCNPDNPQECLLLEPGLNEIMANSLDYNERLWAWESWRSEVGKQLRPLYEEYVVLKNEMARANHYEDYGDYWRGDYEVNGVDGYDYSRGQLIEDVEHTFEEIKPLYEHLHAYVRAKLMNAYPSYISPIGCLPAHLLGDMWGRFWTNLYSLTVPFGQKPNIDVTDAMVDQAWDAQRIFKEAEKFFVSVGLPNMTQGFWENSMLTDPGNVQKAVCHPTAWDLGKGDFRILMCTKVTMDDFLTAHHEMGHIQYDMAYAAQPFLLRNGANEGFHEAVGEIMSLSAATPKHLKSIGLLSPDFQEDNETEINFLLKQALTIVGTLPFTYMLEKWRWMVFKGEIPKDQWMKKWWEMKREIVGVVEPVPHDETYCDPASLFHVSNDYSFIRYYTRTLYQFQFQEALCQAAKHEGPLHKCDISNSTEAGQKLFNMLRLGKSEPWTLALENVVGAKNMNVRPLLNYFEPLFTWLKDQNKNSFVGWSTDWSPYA

B1: SARS-CoV S domain B (S^B), residues 306-575 (domain or fragment)
chain: not shown
**Q.** With B1 as the binder, how does the Kd read?
**A.** 5 ± 0.1 nM

**Q.** And the koff?
**A.** 0.00087 s⁻¹ and 0.00071 s⁻¹

**Q.** What about the kon of the same binder?
**A.** 170000 M⁻¹ s⁻¹
